The record followed here is patent US20160272683A1 (Novo Nordisk, published 2016).

Numbered stars: 1 amine (or outer) side, 2 acyl side, 3 side chain; on linkers, the order of the positions; unused ones are H or OH. * marks the point of attachment. C20 diacid = O=C(O)CCCCCCCCCCCCCCCCCCC(=O)*; γGlu = O=C(O)[C@H](CCC(=O)[*:2])N[*:1]

T1: human amylin 3(a) receptor (human calcitonin receptor co-expressed with RAMP-3) on BHK570/CRE-luc cells (human, UniProt P30988 25-474; O60896 24-148)
T1 sequence (looked up) 1: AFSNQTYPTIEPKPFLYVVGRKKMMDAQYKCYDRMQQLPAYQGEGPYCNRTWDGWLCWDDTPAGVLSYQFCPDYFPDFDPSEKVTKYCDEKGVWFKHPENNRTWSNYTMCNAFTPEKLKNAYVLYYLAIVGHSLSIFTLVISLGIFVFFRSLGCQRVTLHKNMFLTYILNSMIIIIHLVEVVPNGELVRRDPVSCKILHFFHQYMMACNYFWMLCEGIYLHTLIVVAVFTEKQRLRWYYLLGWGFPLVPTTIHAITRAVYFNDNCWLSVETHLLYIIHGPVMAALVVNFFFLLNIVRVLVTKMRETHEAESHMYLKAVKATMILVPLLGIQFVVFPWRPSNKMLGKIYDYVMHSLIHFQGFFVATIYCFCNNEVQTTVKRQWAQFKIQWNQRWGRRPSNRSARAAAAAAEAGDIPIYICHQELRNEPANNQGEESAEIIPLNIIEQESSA
T1 sequence (looked up) 2: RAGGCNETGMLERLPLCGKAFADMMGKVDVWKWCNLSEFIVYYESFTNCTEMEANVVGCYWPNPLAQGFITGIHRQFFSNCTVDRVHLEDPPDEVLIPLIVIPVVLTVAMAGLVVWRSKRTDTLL

T2: human calcitonin receptor on BHK570/CRE-luc cells (human, UniProt P30988 25-474)
T2 sequence (looked up): T1 sequence (looked up) 1

B1: [N-terminal(C20 diacid-gGlu), des1, 4G, 15E, 21Q, 23Y, 30S, 31G, 32T, 33Y]mimylin (peptide)
peptide: {C20 diacid-γGlu}-ASGLSTAALGRLSEELHELQTYPRTETGSGTY-NH2
SMILES: CC(C)C[C@H](NC(=O)CNC(=O)[C@H](CO)NC(=O)[C@H](C)NC(=O)CC[C@H](NC(=O)CCCCCCCCCCCCCCCCCCC(=O)O)C(=O)O)C(=O)N[C@@H](CO)C(=O)N[C@H](C(=O)N[C@@H](C)C(=O)N[C@@H](C)C(=O)N[C@@H](CC(C)C)C(=O)NCC(=O)N[C@@H](CCCNC(=N)N)C(=O)N[C@@H](CC(C)C)C(=O)N[C@@H](CO)C(=O)N[C@@H](CCC(=O)O)C(=O)N[C@@H](CCC(=O)O)C(=O)N[C@@H](CC(C)C)C(=O)N[C@@H](Cc1c[nH]cn1)C(=O)N[C@@H](CCC(=O)O)C(=O)N[C@@H](CC(C)C)C(=O)N[C@@H](CCC(N)=O)C(=O)N[C@H](C(=O)N[C@@H](Cc1ccc(O)cc1)C(=O)N1CCC[C@H]1C(=O)N[C@@H](CCCNC(=N)N)C(=O)N[C@H](C(=O)N[C@@H](CCC(=O)O)C(=O)N[C@H](C(=O)NCC(=O)N[C@@H](CO)C(=O)NCC(=O)N[C@H](C(=O)N[C@@H](Cc1ccc(O)cc1)C(N)=O)[C@@H](C)O)[C@@H](C)O)[C@@H](C)O)[C@@H](C)O)[C@@H](C)O
B2: [N-terminal(C20 diacid-gGlu), des1, 4Q, 9V, 15Q, 21Q, 23Y, 30S, 31Q, 32T, 33Y]mimylin (peptide)
peptide: {C20 diacid-γGlu}-ASQLSTAVLGRLSQELHELQTYPRTETGSQTY-NH2
SMILES: CC(C)C[C@H](NC(=O)[C@H](CCCNC(=N)N)NC(=O)CNC(=O)[C@H](CC(C)C)NC(=O)[C@@H](NC(=O)[C@H](C)NC(=O)[C@@H](NC(=O)[C@H](CO)NC(=O)[C@H](CC(C)C)NC(=O)[C@H](CCC(N)=O)NC(=O)[C@H](CO)NC(=O)[C@H](C)NC(=O)CC[C@H](NC(=O)CCCCCCCCCCCCCCCCCCC(=O)O)C(=O)O)[C@@H](C)O)C(C)C)C(=O)N[C@@H](CO)C(=O)N[C@@H](CCC(N)=O)C(=O)N[C@@H](CCC(=O)O)C(=O)N[C@@H](CC(C)C)C(=O)N[C@@H](Cc1c[nH]cn1)C(=O)N[C@@H](CCC(=O)O)C(=O)N[C@@H](CC(C)C)C(=O)N[C@@H](CCC(N)=O)C(=O)N[C@H](C(=O)N[C@@H](Cc1ccc(O)cc1)C(=O)N1CCC[C@H]1C(=O)N[C@@H](CCCNC(=N)N)C(=O)N[C@H](C(=O)N[C@@H](CCC(=O)O)C(=O)N[C@H](C(=O)NCC(=O)N[C@@H](CO)C(=O)N[C@@H](CCC(N)=O)C(=O)N[C@H](C(=O)N[C@@H](Cc1ccc(O)cc1)C(N)=O)[C@@H](C)O)[C@@H](C)O)[C@@H](C)O)[C@@H](C)O
B3: [N-terminal(C20 diacid-gGlu), des1, 9V, 15Q, 21Q, 23Y, 30S, 31G, 32T, 33Y]mimylin (peptide)
peptide: {C20 diacid-γGlu}-ASELSTAVLGRLSQELHELQTYPRTETGSGTY-NH2
SMILES: CC(C)C[C@H](NC(=O)[C@H](CCCNC(=N)N)NC(=O)CNC(=O)[C@H](CC(C)C)NC(=O)[C@@H](NC(=O)[C@H](C)NC(=O)[C@@H](NC(=O)[C@H](CO)NC(=O)[C@H](CC(C)C)NC(=O)[C@H](CCC(=O)O)NC(=O)[C@H](CO)NC(=O)[C@H](C)NC(=O)CC[C@H](NC(=O)CCCCCCCCCCCCCCCCCCC(=O)O)C(=O)O)[C@@H](C)O)C(C)C)C(=O)N[C@@H](CO)C(=O)N[C@@H](CCC(N)=O)C(=O)N[C@@H](CCC(=O)O)C(=O)N[C@@H](CC(C)C)C(=O)N[C@@H](Cc1c[nH]cn1)C(=O)N[C@@H](CCC(=O)O)C(=O)N[C@@H](CC(C)C)C(=O)N[C@@H](CCC(N)=O)C(=O)N[C@H](C(=O)N[C@@H](Cc1ccc(O)cc1)C(=O)N1CCC[C@H]1C(=O)N[C@@H](CCCNC(=N)N)C(=O)N[C@H](C(=O)N[C@@H](CCC(=O)O)C(=O)N[C@H](C(=O)NCC(=O)N[C@@H](CO)C(=O)NCC(=O)N[C@H](C(=O)N[C@@H](Cc1ccc(O)cc1)C(N)=O)[C@@H](C)O)[C@@H](C)O)[C@@H](C)O)[C@@H](C)O
B4: [N-terminal(C20 diacid-gGlu), 4Q, 9V, 15Q, 21Q, 23Y, 27G, 30S, 31G, 32T, 33Y]mimylin (peptide)
peptide: {C20 diacid-γGlu}-EASQLSTAVLGRLSQELHELQTYPRTGTGSGTY-NH2
SMILES: CC(C)C[C@H](NC(=O)[C@H](CCCNC(=N)N)NC(=O)CNC(=O)[C@H](CC(C)C)NC(=O)[C@@H](NC(=O)[C@H](C)NC(=O)[C@@H](NC(=O)[C@H](CO)NC(=O)[C@H](CC(C)C)NC(=O)[C@H](CCC(N)=O)NC(=O)[C@H](CO)NC(=O)[C@H](C)NC(=O)[C@H](CCC(=O)O)NC(=O)CC[C@H](NC(=O)CCCCCCCCCCCCCCCCCCC(=O)O)C(=O)O)[C@@H](C)O)C(C)C)C(=O)N[C@@H](CO)C(=O)N[C@@H](CCC(N)=O)C(=O)N[C@@H](CCC(=O)O)C(=O)N[C@@H](CC(C)C)C(=O)N[C@@H](Cc1c[nH]cn1)C(=O)N[C@@H](CCC(=O)O)C(=O)N[C@@H](CC(C)C)C(=O)N[C@@H](CCC(N)=O)C(=O)N[C@H](C(=O)N[C@@H](Cc1ccc(O)cc1)C(=O)N1CCC[C@H]1C(=O)N[C@@H](CCCNC(=N)N)C(=O)N[C@H](C(=O)NCC(=O)N[C@H](C(=O)NCC(=O)N[C@@H](CO)C(=O)NCC(=O)N[C@H](C(=O)N[C@@H](Cc1ccc(O)cc1)C(N)=O)[C@@H](C)O)[C@@H](C)O)[C@@H](C)O)[C@@H](C)O
B5: [N-terminal(C20 diacid-gGlu), des1, 4G, 15T, 21E, 23Y, 30S, 31G, 32T, 33Y]mimylin (peptide)
peptide: {C20 diacid-γGlu}-ASGLSTAALGRLSTELHELETYPRTETGSGTY-NH2
SMILES: CC(C)C[C@H](NC(=O)CNC(=O)[C@H](CO)NC(=O)[C@H](C)NC(=O)CC[C@H](NC(=O)CCCCCCCCCCCCCCCCCCC(=O)O)C(=O)O)C(=O)N[C@@H](CO)C(=O)N[C@H](C(=O)N[C@@H](C)C(=O)N[C@@H](C)C(=O)N[C@@H](CC(C)C)C(=O)NCC(=O)N[C@@H](CCCNC(=N)N)C(=O)N[C@@H](CC(C)C)C(=O)N[C@@H](CO)C(=O)N[C@H](C(=O)N[C@@H](CCC(=O)O)C(=O)N[C@@H](CC(C)C)C(=O)N[C@@H](Cc1c[nH]cn1)C(=O)N[C@@H](CCC(=O)O)C(=O)N[C@@H](CC(C)C)C(=O)N[C@@H](CCC(=O)O)C(=O)N[C@H](C(=O)N[C@@H](Cc1ccc(O)cc1)C(=O)N1CCC[C@H]1C(=O)N[C@@H](CCCNC(=N)N)C(=O)N[C@H](C(=O)N[C@@H](CCC(=O)O)C(=O)N[C@H](C(=O)NCC(=O)N[C@@H](CO)C(=O)NCC(=O)N[C@H](C(=O)N[C@@H](Cc1ccc(O)cc1)C(N)=O)[C@@H](C)O)[C@@H](C)O)[C@@H](C)O)[C@@H](C)O)[C@@H](C)O)[C@@H](C)O

The target in the first assay is T1, human amylin 3(a) receptor (human …). Put plainly: cell-based or functional assay.
B1: the “hAmylin-R funct. EC50 (pM), tested with HSA” value came to 159 pM.
Same read-out and setting: under B2 stands 67 pM; under B3, 142 pM; under B4, 546 pM.
Same read-out and setting: under B5 stands 291 pM.

Another assay concerns the target T2, human calcitonin receptor on …. The experiment in a line: cell-based or functional assay.
As for B1, the “hCTR funct. EC50 (pM), tested with HSA” value came out at 57 pM.
The same measure, in the same setting: under B2 stands 36 pM; under B3, 97 pM.
In the case of B4, the “hCTR funct. EC50 (pM), tested with HSA” value was 366 pM.
For B5, the “hCTR funct. EC50 (pM), tested with HSA” value is 67 pM.
